The record followed here is the supplement of paper PMC10567573.

± gives the standard deviation.

This data set can be described thus: protein stability index of a GFP-peptide fusion (GPS, HEK-293T) (PSI 1-6); higher = more stable. The settings on record: c terminus: a fixed tail appended.
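Further: 24-mer peptide tiles fused after GFP, lentivirally expressed, FACS-sorted into six equal bins by GFP/DsRed ratio, decoded by Illumina sequencing, PSI is the read-weighted mean bin number.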

For the sequence LQCAMEENCLSASAAQTDPTTGYR [LOXL2], the protein stability index runs as follows: (treatment: DMSO) 3.59 ± 0.23; (treatment: MLN4924 1 uM, 8 h) 3.45 ± 0.29.

In the case of LQDGRRKVHYLFPDGKEMAEEYDE [DPCD], the protein stability index stood at 4.7 ± 0.064 (treatment: DMSO) and 4.72 ± 0.37 (treatment: MLN4924 1 uM, 8 h).

Turning to LQQQPLCTSVNTIYDNAVQGLRRH [LRRC59], the protein stability index is 3.66 ± 0.091 (treatment: DMSO) and 3.83 ± 0.13 (treatment: MLN4924 1 uM, 8 h).

LQRWCRAKHMGLEPPPEVWQVLKT [POLD4]: the protein stability index amounted to 2.28 ± 0.056 (treatment: DMSO) and 2.56 ± 0.14 (treatment: MLN4924 1 uM, 8 h).

Regarding LQSSKNSYSFQNPSSFDPSMLLQR [RNF180], the protein stability index is, setting by setting: (treatment: DMSO) 2.9 ± 0.27; (treatment: MLN4924 1 uM, 8 h) 3.3 ± 0.17.

With LQTVTREKEELLQLSIERGKVLQN [CCDC89], the protein stability index is, setting by setting: (treatment: DMSO) 4.13 ± 0.25; (treatment: MLN4924 1 uM, 8 h) 4.42 ± 0.26.

On to LRCKLAAFYRLADLFGWSQLIYNH [ADD1], for which the protein stability index is 2.89 ± 0.49 (treatment: DMSO) and 2.78 ± 0.37 (treatment: MLN4924 1 uM, 8 h).

Sequence LRITSGVVVCQCGLSIPSHSSELT [RPAIN] yielded a protein stability index (treatment: DMSO) of 2.56 ± 0.65 and a protein stability index (treatment: MLN4924 1 uM, 8 h) of 2.48 ± 0.57.

With LRNKLRELCVKLMFLHPVDYGRKA [SMG5], the protein stability index is, setting by setting: (treatment: DMSO) 3.21 ± 0.36; (treatment: MLN4924 1 uM, 8 h) 3.03 ± 0.51.

With LRYSVVEESEPGTLVGNVAQDLGL [PCDHGC5], the protein stability index stood at 3.94 ± 0.13 (treatment: DMSO) and 3.86 ± 0.26 (treatment: MLN4924 1 uM, 8 h).

For the sequence LSKILAKLERLKQQNEDLRRMAES [FUT8], the protein stability index by setting is: (treatment: DMSO) 2.9 ± 0.22; (treatment: MLN4924 1 uM, 8 h) 3.12 ± 0.24.

On to LSPEVLNKQGHGCESDIWALGCVM [PLK2], for which the protein stability index reads like this: (treatment: DMSO) 2.09 ± 0.15; (treatment: MLN4924 1 uM, 8 h) 2.14 ± 0.29.

As to LSSTLLSFSTAIGRTCITDLQLTV [MFSD9], the protein stability index is, setting by setting: (treatment: DMSO) 3.11 ± 0.17; (treatment: MLN4924 1 uM, 8 h) 3.18 ± 0.39.

With LSSVECLDYTADEDGVWYSVAPMN [KLHL12], the protein stability index runs as follows: (treatment: DMSO) 3.59 ± 0.19; (treatment: MLN4924 1 uM, 8 h) 3.74 ± 0.48.

Regarding LTCDSSTSSSDDDEEVSGSSKTIT [C18orf25], the protein stability index was determined as 5.4 ± 0.26 (treatment: DMSO) and 5.46 ± 0.21 (treatment: MLN4924 1 uM, 8 h).

As to LTINPAKRITASEALKHPWICQRS [CAMK2D], the protein stability index reads like this: (treatment: DMSO) 2.57 ± 0.1; (treatment: MLN4924 1 uM, 8 h) 2.72 ± 0.25.

Take LTIRESILINNGSRIKGWWVFHHY [TMEM120A]: the protein stability index runs as follows: (treatment: DMSO) 3.1 ± 0.7; (treatment: MLN4924 1 uM, 8 h) 2.73 ± 0.92.

As to LTKHEWTEALGCDPPLSQDERTHR [ZNF8], the protein stability index was determined as 4.6 ± 0.2 (treatment: DMSO) and 4.72 ± 0.17 (treatment: MLN4924 1 uM, 8 h).

LTLVFFVQITGQPNILFYASTVLK [SLC2A12]: the protein stability index runs as follows: (treatment: DMSO) 3.19 ± 0.51; (treatment: MLN4924 1 uM, 8 h) 3.5 ± 0.59.

As for LTLYNPTGTALRFRVLCTAPAKYT [MOSPD3], the protein stability index is, setting by setting: (treatment: DMSO) 2.79 ± 0.65; (treatment: MLN4924 1 uM, 8 h) 2.69 ± 0.48.

Consider LTVNTEAQQLLREFEEATGEAGWG [FOXJ1], for which the protein stability index is 4.55 ± 0.14 (treatment: DMSO) and 4.62 ± 0.073 (treatment: MLN4924 1 uM, 8 h).

Take LTWSELFVLNAAQCSMPLHVAPLL [NR2F2]: the protein stability index runs as follows: (treatment: DMSO) 2.98 ± 0.21; (treatment: MLN4924 1 uM, 8 h) 3.16 ± 0.32.

As for LVLNSQQSDTLEQREEHELVHVME [RAD54B], the protein stability index amounted to 4.59 ± 0.24 (treatment: DMSO) and 4.36 ± 0.21 (treatment: MLN4924 1 uM, 8 h).

Take LVQRQMSVIEEDLEEFQLALKHYV [NECAB1]: the protein stability index (treatment: DMSO) is 2.32 ± 0.36 and the protein stability index (treatment: MLN4924 1 uM, 8 h) was 2.6 ± 0.23.

Consider LVTYTNRYIIFKRNTLNQPCSGSV [GMCL1], for which the protein stability index is, setting by setting: (treatment: DMSO) 2.29 ± 0.24; (treatment: MLN4924 1 uM, 8 h) 2.07 ± 0.2.

On to LYFATLRNRPKSTVNTHYFSIDEE [CDC14A], for which the protein stability index runs as follows: (treatment: DMSO) 2.11 ± 0.17; (treatment: MLN4924 1 uM, 8 h) 2.15 ± 0.32.

LYIFATCLGLSYDGLLGDNQIMPK [MAGEA3] came in with a protein stability index (treatment: DMSO) of 2.92 ± 0.34 and a protein stability index (treatment: MLN4924 1 uM, 8 h) of 2.78 ± 0.52.

With MARLQEEHGDQLLSIRCQHQEQVE [MTUS2], the protein stability index worked out at 4.85 ± 0.38 (treatment: DMSO) and 4.96 ± 0.11 (treatment: MLN4924 1 uM, 8 h).

Take MASFPPRVNEKEIVRLRTIGELLA [WSB1]: the protein stability index reads like this: (treatment: DMSO) 2.18 ± 0.3; (treatment: MLN4924 1 uM, 8 h) 2.14 ± 0.13.

As for MATTVTCTRFTDEYQLYEDIGKGA [CAMK2B], the protein stability index is, setting by setting: (treatment: DMSO) 3.25 ± 0.2; (treatment: MLN4924 1 uM, 8 h) 3.31 ± 0.18.

Regarding MCLFLQSLRQKQPERLCSGPGIVG [GMPPB], the protein stability index by setting is: (treatment: DMSO) 2.27 ± 0.41; (treatment: MLN4924 1 uM, 8 h) 2.17 ± 0.46.

Turning to MCQRLRSMQYNGSYFDRGAKGGSR [DFFB], the protein stability index reads like this: (treatment: DMSO) 3.26 ± 0.26; (treatment: MLN4924 1 uM, 8 h) 3.48 ± 0.42.

As to MCRLEELGLAGRCLTLTPRPATEA [HDAC6], the protein stability index was found to be 2.21 ± 0.22 (treatment: DMSO) and 2.27 ± 0.095 (treatment: MLN4924 1 uM, 8 h).

On to MDHIRIFQEQVEKLKALHVDSAEY [NR2F2], for which the protein stability index (treatment: DMSO) stood at 3.07 ± 0.44 and the protein stability index (treatment: MLN4924 1 uM, 8 h) came to 3.2 ± 0.36.

Turning to MDSDFSHAFQKELTCVICLNYLVD [TRIM43], the protein stability index was 2.6 ± 0.39 (treatment: DMSO) and 2.53 ± 0.44 (treatment: MLN4924 1 uM, 8 h).

For MDVGETAMVTADSKYCYGPQGSRS [FKBP8], the protein stability index was found to be 4.36 ± 0.31 (treatment: DMSO) and 4.51 ± 0.23 (treatment: MLN4924 1 uM, 8 h).
